Measured values as given in PMC10201449, “Structures, activity and mechanism of the Type IIS restriction endonuclease PaqCI”.

T1: PaqCI Type IIS restriction endonuclease (Paucibacter aquatile, UniProt A0A2N8KYF9 1-510)
T1 sequence: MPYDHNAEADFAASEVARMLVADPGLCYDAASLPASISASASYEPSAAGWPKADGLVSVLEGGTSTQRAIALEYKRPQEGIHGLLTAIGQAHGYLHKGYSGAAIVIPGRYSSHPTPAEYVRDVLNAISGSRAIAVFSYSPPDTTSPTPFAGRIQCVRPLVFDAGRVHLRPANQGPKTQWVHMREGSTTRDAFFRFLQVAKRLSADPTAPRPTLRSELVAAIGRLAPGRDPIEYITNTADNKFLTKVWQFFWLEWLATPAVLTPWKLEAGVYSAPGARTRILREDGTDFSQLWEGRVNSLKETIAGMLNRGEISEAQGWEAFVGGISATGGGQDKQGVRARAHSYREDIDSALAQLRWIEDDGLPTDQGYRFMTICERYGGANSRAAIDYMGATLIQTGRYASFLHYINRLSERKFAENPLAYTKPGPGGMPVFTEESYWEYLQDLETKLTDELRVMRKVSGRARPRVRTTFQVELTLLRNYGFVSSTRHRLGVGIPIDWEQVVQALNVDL


What was measured:
[1] = target: PaqCI, Type IIS restriction endonuclease of Paucibacter aquatile (Paucibacter aquatile); assay: cryo-EM structure; PaqCI with 50 bp DNA duplex (1:1.2 molar ratio) in 10 mM calcium chloride, SEC peak in 30 mM BisTris pH 6.5, 100 mM sodium chloride; 3.15 Å map, no symmetry imposed
[2] = target: PaqCI, Type IIS restriction endonuclease of Paucibacter aquatile (Paucibacter aquatile); assay: crystal structure; DNA-free apo-enzyme; 20 to 25% PEG 3350, 0.2 M magnesium chloride, 0.1 M Bis-Tris pH 5.5; 2.5 Å; two subunits in the asymmetric unit, tetramer by a crystallographic two-fold axis
[3] = target: PaqCI, Type IIS restriction endonuclease of Paucibacter aquatile (Paucibacter aquatile); assay: cryo-EM structure; DNA-free PaqCI, 0.1-0.4 mg/ml; 3.0 Å global resolution map, no symmetry imposed; crystallographic model docked
[4] = target: PaqCI, Type IIS restriction endonuclease of Paucibacter aquatile (Paucibacter aquatile); assay: SEC; DNA-free PaqCI on Superdex 200 10/300 GL; 20 mM HEPES pH 7.5, 150 mM sodium chloride, 5 mM magnesium chloride, 1 mM DTT
[5] = target: T1, PaqCI Type IIS restriction endonuclease; assay: SEC co-elution; 10 mM Ca2+; 1:1.2 protein monomer:DNA; SEC/cryo-EM: 30 mM BisTris pH 6.5, 100 mM NaCl; complex formed with 10 mM CaCl2; temperature not stated; conditions: protein: recombinant; tags: none (untagged); chain copies: 4; 50 complementary bp; four duplexes per tetramer

Row | Molecule | stoichiometry N [1] | stoichiometry N [2] | stoichiometry N [3] | stoichiometry N [4] | binding result [5]
1 | PaqCI, Type IIS restriction endonuclease of Paucibacter aquatile (enzyme) | 4 | 4 | 4 | 4 | –
2 | 50 bp PaqCI target duplex (dsDNA) DNA 1: CCAGTCGGGATCAGCTCTCTTTCTTCCCACCTGCGCCACGCGAGGTACTC DNA 2: GAGTACCTCGCGTGGCGCAGGTGGGAAGAAAGAGAGCTGATCCCGACTGG | – | – | – | – | binds
